Assay results taken from patent publication US20160145333A1 (Amgen, published 2016).

Tests used:
[1] = molecular target: T1, Mouse CB1 receptor, wild type (mouse, UniProt P47746 1-473); assay: FACS on transfected cells
T1 construct: also called mCB1; V5-mCB1

[2] = molecular target: T2, Human CB1 receptor (cannabinoid receptor-1), wild type (human, UniProt P21554 1-472); assay: cell-based or functional assay
[3] = molecular target: T2, Human CB1 receptor (cannabinoid …); assay: method not given

T2 sequence (P21554 whole entry): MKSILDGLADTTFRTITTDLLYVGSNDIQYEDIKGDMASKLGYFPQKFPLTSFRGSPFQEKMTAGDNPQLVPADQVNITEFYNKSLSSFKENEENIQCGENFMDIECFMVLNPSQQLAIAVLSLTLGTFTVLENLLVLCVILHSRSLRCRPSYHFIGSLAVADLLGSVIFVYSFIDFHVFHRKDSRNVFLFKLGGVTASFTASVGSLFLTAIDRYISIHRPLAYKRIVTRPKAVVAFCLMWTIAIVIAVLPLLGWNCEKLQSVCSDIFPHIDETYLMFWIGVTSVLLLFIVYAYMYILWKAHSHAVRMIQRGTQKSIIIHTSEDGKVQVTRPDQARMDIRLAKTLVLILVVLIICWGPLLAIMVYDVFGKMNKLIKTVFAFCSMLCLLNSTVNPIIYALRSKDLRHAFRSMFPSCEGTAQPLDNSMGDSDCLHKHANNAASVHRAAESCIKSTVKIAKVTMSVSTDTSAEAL
T1 sequence (P47746 whole entry): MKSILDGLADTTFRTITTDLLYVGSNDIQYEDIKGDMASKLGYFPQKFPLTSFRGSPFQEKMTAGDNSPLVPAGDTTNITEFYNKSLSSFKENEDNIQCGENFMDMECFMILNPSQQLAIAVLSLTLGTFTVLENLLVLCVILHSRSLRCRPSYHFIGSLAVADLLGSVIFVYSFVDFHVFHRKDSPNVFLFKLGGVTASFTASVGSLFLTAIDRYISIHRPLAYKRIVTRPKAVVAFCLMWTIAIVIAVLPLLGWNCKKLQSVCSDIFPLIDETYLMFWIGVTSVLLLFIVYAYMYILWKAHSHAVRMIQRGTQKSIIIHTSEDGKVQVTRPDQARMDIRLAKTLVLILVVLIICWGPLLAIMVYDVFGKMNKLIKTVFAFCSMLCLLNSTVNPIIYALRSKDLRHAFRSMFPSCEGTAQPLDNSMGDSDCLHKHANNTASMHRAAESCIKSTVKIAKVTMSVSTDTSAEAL

B1: CB1 antibody 10D10 (antibody, human IgG2, kappa, V domains shown)
VH: QVQLQESGPGLVKPSQTLSLTCTVSGGSIRRGGDYWSWIRQHPGKGLEWIGYIYYSGSTNYNPSLKSRATISVDTSKNQFSLKLSSVTAADTAVYYCARDYDILTGYSYYYYGMDVWGQGTTVTVSS
VL: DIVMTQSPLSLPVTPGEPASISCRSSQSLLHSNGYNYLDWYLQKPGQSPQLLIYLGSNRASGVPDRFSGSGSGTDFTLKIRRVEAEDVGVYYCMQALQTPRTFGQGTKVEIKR
notes: Xenomouse (human) antibody; also called wild-type 10D10; WT HC / WT LC
binding result [1]: no binding
IC50, GTP-Eu assay against anandamide [2]: 0.0101 µM
Kd [3]: < 0.2 µM
